According to PMC3792637 (Chembiochem, 2013):

Experiments:
[1] = molecular target: K165C variant of S. aureus N-acetylneuraminic acid lyase (Staphylococcus aureus NCTC 8325) (UniProt Q2G160); assay: crystal structure
[2] = molecular target: T1, S. aureus NAL (N-acetylneuraminic acid lyase) (Staphylococcus aureus, UniProt Q2G160); assay: X-ray crystal structure, soak; assay type: binding; settings: covalent Schiff base with Lys165; 100 mM sodium pyruvate soak
T1 sequence (Q2G160 1-293): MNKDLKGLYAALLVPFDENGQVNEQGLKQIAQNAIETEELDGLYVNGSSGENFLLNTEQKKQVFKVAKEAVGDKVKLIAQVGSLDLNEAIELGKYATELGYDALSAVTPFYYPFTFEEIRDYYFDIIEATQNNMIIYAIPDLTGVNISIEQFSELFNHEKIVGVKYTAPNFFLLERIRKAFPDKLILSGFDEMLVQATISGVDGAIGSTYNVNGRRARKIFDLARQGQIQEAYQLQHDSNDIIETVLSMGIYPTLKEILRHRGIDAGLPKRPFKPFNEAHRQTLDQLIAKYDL

[3] = molecular target: K165-γ-thialysine S. aureus N-acetylneuraminic acid lyase (Staphylococcus aureus NCTC 8325) (UniProt Q2G160); assay: crystal structure

K165C variant of S. aureus N-acetylneuraminic acid lyase (from UniProt Q2G160 2-293) (enzyme)
stoichiometry N [1]: 4

CC(=O)C(=O)O [pyruvate]
X-ray crystal structure, soak [2]: the structure of the enzyme–pyruvate complex (PDB ID: 4AH7) was also determined

K165-γ-thialysine S. aureus N-acetylneuraminic acid lyase (from UniProt Q2G160 1-293) (enzyme)
stoichiometry N [3]: 4
